# Test results published in patent US20130210077.
# How the values were obtained:
# [1] = system: CsnR (ROK-family transcriptional repressor, SSPG_04872) (Streptomyces lividans TK24); assay: competition
# [2] = system: CsnR (ROK-family transcriptional repressor, SSPG_04872) (Streptomyces lividans TK24); assay: EMSA; details: 10 mM HEPES pH 7.9, 150 mM KCl, 10% glycerol, poly(dI-dC), room temperature
sequence,measurement,setting,value
CCTCTTCTGGTAGGAAACTGTCCGATCAGT (double strand) [csnA-MM],IC50,"[1]; competitor vs labeled csnA-WT, +2 and +6 mutations, lost most affinity, SE logIC50 0.33",105 nM
CCTCTTCTGGTAGGAAACTGTCCTATCAGT (double strand) [csnA-M1],IC50,"[1]; competitor vs labeled csnA-WT, +2 mutation, SE logIC50 0.13",52.1 nM
CCTCTTCTGGTAGGAAACTTTCCGATCAGT (double strand) [csnA-M2],IC50,"[1]; competitor vs labeled csnA-WT, +6 mutation, SE logIC50 0.08",2.7 nM
CCTCTTCTGGTAGGAAACTTTCCTATCAGT (double strand) [csnA-WT],Kd,[2]; SE 0.009 nM,0.032 nM
same,IC50,"[1]; unlabeled competitor vs 0.03 nM labeled csnA-WT, SE logIC50 0.11",1.3 nM
CTCCAGCCAACAGGAAACTTTCCTAACAGA (double strand) [csnR-WT],Kd,[2]; SE 0.008 nM,0.04 nM
